Consider 1 molecule from article PMC2928259 (Biochemistry, 2010).

For the assay, the target named is T1, Cbf5 (Pyrococcus furiosus, UniProt Q7LWY0 1-340).
T1 sequence (looked up): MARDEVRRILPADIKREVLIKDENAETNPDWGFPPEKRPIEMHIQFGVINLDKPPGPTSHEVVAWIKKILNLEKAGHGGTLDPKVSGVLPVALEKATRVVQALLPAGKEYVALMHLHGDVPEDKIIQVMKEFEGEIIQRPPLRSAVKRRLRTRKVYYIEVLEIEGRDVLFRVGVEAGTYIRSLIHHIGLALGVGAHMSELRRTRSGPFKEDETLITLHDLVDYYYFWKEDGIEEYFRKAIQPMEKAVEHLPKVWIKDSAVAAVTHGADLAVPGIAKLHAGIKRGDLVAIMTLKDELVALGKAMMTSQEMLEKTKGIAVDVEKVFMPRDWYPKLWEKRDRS
Description: crystal structure.

B1: Nop10 (natural protein, Pyrococcus furiosus)
chain: MRFRIRKCPKCGRYTLKEVCPVCGEKTKVAHPPRFSPEDPYGEYRRRWKREVLGIGRKEK
Take B1: the binding result was “binds”.
